Laboratory results reported in the supplement of paper PMC12458215.
± gives the uncertainty stated by the source.

Test system: HEK293T
Test: plasma membrane surface immunostaining intensity (anti-HA, deep receptor scanning) (arbitrary fluorescence units); higher = higher plasma membrane expression

Sequence	plasma membrane surface immunostaining intensity (GPCR class: A)	plasma membrane surface immunostaining intensity (GPCR class: A (Olfactory))	also measured
MAANVSGAKSCPANFLAAADDKLSGFQGDFLWPILVVEFLVAVASNGLALYRFSIRKQRPWHPAVVFSVQLAVSDLLCALTLPPLAAYLYPPKHWRYGEAACRLERFLFTCNLLGSVIFITCISLNRYLGIVHPFFARSHLRPKHAWAVSAAGWVLAALLAMPTLSFSHLKRPQQGAGNCSVARPEACIKCLGTADHGLAAYRAYSLVLAGLGCGLPLLLTLAAYGALGRAVLRSPGMTVAEKLRVAALVASGVALYASSYVPYHIMRVLNVDARRRWSTRCPSFADIAQATAALELGPYVGYQVMRGLMPLAFCVHPLLYMAAVPSLGCCCRHCPGYRDSWNPEDAKSTGQALPLNATAAPKPSEPQSRELSQ [P2RY11]	4350 ± 520	–	–
MAATASPQPLATEDADSENSSFYYYDYLDEVAFMLCRKDAVVSFGKVFLPVFYSLIFVLGLSGNLLLLMVLLRYVPRRRMVEIYLLNLAISNLLFLVTLPFWGISVAWHWVFGSFLCKMVSTLYTINFYSGIFFISCMSLDKYLEIVHAQPYHRLRTRAKSLLLATIVWAVSLAVSIPDMVFVQTHENPKGVWNCHADFGGHGTIWKLFLRFQQNLLGFLLPLLAMIFFYSRIGCVLVRLRPAGQGRALKIAAALVVAFFVLWFPYNLTLFLHTLLDLQVFGNCEVSQHLDYALQVTESIAFLHCCFSPILYAFSSHRFRQYLKAFLAAVLGWHLAPGTAQASLSSCSESSILTAQEEMTGMNDLGERQSENYPNKEDVGNKSA [ACKR2]	6400 ± 110	–	–
MADAQNISLDSPGSVGAVAVPVVFALIFLLGTVGNGLVLAVLLQPGPSAWQEPGSTTDLFILNLAVADLCFILCCVPFQATIYTLDAWLFGALVCKAVHLLIYLTMYASSFTLAAVSVDRYLAVRHPLRSRALRTPRNARAAVGLVWLLAALFSAPYLSYYGTVRYGALELCVPAWEDARRRALDVATFAAGYLLPVAVVSLAYGRTLRFLWAAVGPAGAAAAEARRRATGRAGRAMLAVAALYALCWGPHHALILCFWYGRFAFSPATYACRLASHCLAYANSCLNPLVYALASRHFRARFRRLWPCGRRRRHRARRALRRVRPASSGPPGCPGDARPSGRLLAGGGQGPEPREGPVHGGEAARGPE [GALR3]	2680 ± 290	–	–
MAEENHTMKNEFILTGFTDHPELKTLLFVVFFAIYLITVVGNISLVALIFTHRRLHTPMYIFLGNLALVDSCCACAITPKMLENFFSENKRISLYECAVQFYFLCTVETADCFLLAAMAYDRYVAICNPLQYHIMMSKKLCIQMTTGAFIAGNLHSMIHVGLVFRLVFCGSNHINHFYCDILPLYRLSCVDPYINELVLFIFSGSVQVFTIGSVLISYLYILLTIFKMKSKEGRAKAFSTCASHFLSVSLFYGSLFFMYVRPNLLEEGDKDIPAAILFTIVVPLLNPFIYSLRNREVISVLRKILMKK [OR5K1]	–	194 ± 62	–
MAEHDYHEDYGFSSFNDSSQEEHQDFLQFSKVFLPCMYLVVFVCGLVGNSLVLVISIFYHKLQSLTDVFLVNLPLADLVFVCTLPFWAYAGIHEWVFGQVMCKSLLGIYTINFYTSMLILTCITVDRFIVVVKATKAYNQQAKRMTWGKVTSLLIWVISLLVSLPQIIYGNVFNLDKLICGYHDEAISTVVLATQMTLGFFLPLLTMIVCYSVIIKTLLHAGGFQKHRSLKIIFLVMAVFLLTQMPFNLMKFIRSTHWEYYAMTSFHYTIMVTEAIAYLRACLNPVLYAFVSLKFRKNFWKLVKDIGCLPYLGVSHQWKSSEDNSKTFSASHNVEATSMFQL [CXCR6]	967 ± 65	–	–
MAEMNLTLVTEFLLIAFTEYPEWALPLFLLFLFMYLITVLGNLEMIILILMDHQLHAPMYFLLSHLAFMDVCYSSITVPQMLAVLLEHGAALSYTRCAAQFFLFTFFGSIDCYLLALMAYDRYLAVCQPLLYVTILTQQARLSLVAGAYVAGLISALVRTVSAFTLSFCGTSEIDFIFCDLPPLLKLTCGESYTQEVLIIMFAIFVIPASMVVILVSYLFIIVAIMGIPAGSQAKTFSTCTSHLTAVSLFFGTLIFMYLRGNSDQSSEKNRVVSVLYTEVIPMLNPLIYSLRNKEVKEALRKILNRAKLS [OR9Q1]	–	422 ± 160	–
MAERNYTVVTEFFLTAFTEHLQWRVPLFLIFLSFYLATMLGNTGMILLIRGDRRLHTPMYFFLSHLSLVDICYSSAIIPQMLAVLWEHGTTISQARCAAQFFLFTFFASIDCYLLAIMAYDRYTAVCQPLLYVTIITEKARWGLVTGAYVAGFFSAFVRTVTAFTLSFCGNNEINFIFCDLPPLLKLSCGDSYTQEVVIIVFALFVMPACILVILVSYLFIIVAILQIHSAGGRAKTFSTCASHLTAVALFFGTLIFMYLRDNTGQSSEGDRVVSVLYTVVTPMLNPLIYSLRNKEVKEATRKALSKSKPARRP [OR9Q2]	–	188 ± 71	–
MAETSALPTGFGELEVLAVGMVLLVEALSGLSLNTLTIFSFCKTPELRTPCHLLVLSLALADSGISLNALVAATSSLLRRWPYGSDGCQAHGFQGFVTALASICSSAAIAWGRYHHYCTRSQLAWNSAVSLVLFVWLSSAFWAALPLLGWGHYDYEPLGTCCTLDYSKGDRNFTSFLFTMSFFNFAMPLFITITSYSLMEQKLGKSGHLQVNTTLPARTLLLGWGPYAILYLYAVIADVTSISPKLQMVPALIAKMVPTINAINYALGNEMVCRGIWQCLSPQKREKDRTK [RGR]	125 ± 16	–	–
MAFLIILITCFVIILATSQPCQTPDDFVAATSPGHIIIGGLFAIHEKMLSSEDSPRRPQIQECVGFEISVFLQTLAMIHSIEMINNSTLLPGVKLGYEIYDTCTEVTVAMAATLRFLSKFNCSRETVEFKCDYSSYMPRVKAVIGSGYSEITMAVSRMLNLQLMPQVGYESTAEILSDKIRFPSFLRTVPSDFHQIKAMAHLIQKSGWNWIGIITTDDDYGRLALNTFIIQAEANNVCIAFKEVLPAFLSDNTIEVRINRTLKKIILEAQVNVIVVFLRQFHVFDLFNKAIEMNINKMWIASDNWSTATKITTIPNVKKIGKVVGFAFRRGNISSFHSFLQNLHLLPSDSHKLLHEYAMHLSACAYVKDTDLSQCIFNHSQRTLAYKANKAIERNFVMRNDFLWDYAEPGLIHSIQLAVFALGYAIRDLCQARDCQNPNAFQPWELLGVLKNVTFTDGWNSFHFDAHGDLNTGYDVVLWKEINGHMTVTKMAEYDLQNDVFIIPDQETKNEFRNLKQIQSKCSKECSPGQMKKTTRSQHICCYECQNCPENHYTNQTDMPHCLLCNNKTHWAPVRSTMCFEKEVEYLNWNDSLAILLLILSLLGIIFVLVVGIIFTRNLNTPVVKSSGGLRVCYVILLCHFLNFASTSFFIGEPQDFTCKTRQTMFGVSFTLCISCILTKSLKILLAFSFDPKLQKFLKCLYRPILIIFTCTGIQVVICTLWLIFAAPTVEVNVSLPRVIILECEEGSILAFGTMLGYIAILAFICFIFAFKGKYENYNEAKFITFGMLIYFIAWITFIPIYATTFGKYVPAVEIIVILISNYGILYCTFIPKCYVIICKQEINTKSAFLKMIYSYSSHSVSSIALSPASLDSMSGNVTMTNPSSSGKSATWQKSKDLQAQAFAHICRENATSVSKTLPRKRMSSI [GPRC6A]	–	–	plasma membrane surface immunostaining intensity (GPCR class: C): 158 ± 24
MAGAPGPLRLALLLLGMVGRAGPRPQGATVSLWETVQKWREYRRQCQRSLTEDPPPATDLFCNRTFDEYACWPDGEPGSFVNVSCPWYLPWASSVPQGHVYRFCTAEGLWLQKDNSSLPWRDLSECEESKRGERSSPEEQLLFLYIIYTVGYALSFSALVIASAILLGFRHLHCTRNYIHLNLFASFILRALSVFIKDAALKWMYSTAAQQHQWDGLLSYQDSLSCRLVFLLMQYCVAANYYWLLVEGVYLYTLLAFSVLSEQWIFRLYVSIGWGVPLLFVVPWGIVKYLYEDEGCWTRNSNMNYWLIIRLPILFAIGVNFLIFVRVICIVVSKLKANLMCKTDIKCRLAKSTLTLIPLLGTHEVIFAFVMDEHARGTLRFIKLFTELSFTSFQGLMVAILYCFVNNEVQLEFRKSWERWRLEHLHIQRDSSMKPLKCPTSSLSSGATAGSSMYTATCQASCS [GLP1R]	–	–	plasma membrane surface immunostaining intensity (GPCR class: B): 560 ± 52
MAGNNFTEVTVFILSGFANHPELQVSLFLMFLFIYLFTVLGNLGLITLIRMDSQLHTPMYFFLSNLAFIDIFYSSTVTPKALVNFQSNRRSISFVGCFVQMYFFVGLVCCECFLLGSMAYNRYIAICNPLLYSVVMSQKVSNWLGVMPYVIGFTSSLISVWVISSLAFCDSSINHFFCDTTALLALSCVDTFGTEMVSFVLAGFTLLSSLLIITVTYIIIISAILRIQSAAGRQKAFSTCASHLMAVTIFYGSLIFTYLQPDNTSSLTQAQVASVFYTIVIPMLNPLIYSLRNKDVKNALLRVIHRKLFP [OR8I2]	–	189 ± 85	–
